{
  "source": "paper PMC2622761",
  "target": "GST-PfMTIP (P. falciparum (3D7)) (UniProt Q8I4W8)",
  "assay": "pull-down; GST or GST-MTIP coupled to glutathione-Sepharose 4B; 25 µg His-tagged Rab protein incubated overnight at 4°C; four washes in PBS (0.1% Triton X-100); detected by anti-His immunoblot",
  "data": [
    {"substance": "PfRab11A-His (natural protein)", "values": [
      {"measurement": "percent of input detected in the pull-down", "value": 5, "unit": "%"}
    ]}
  ]
}
